Experimental data reported in IntAct's records for PubMed 17070805.

Biological target: T1, npl4_human NPLOC4 (UniProt Q8TAT6)
T1 sequence: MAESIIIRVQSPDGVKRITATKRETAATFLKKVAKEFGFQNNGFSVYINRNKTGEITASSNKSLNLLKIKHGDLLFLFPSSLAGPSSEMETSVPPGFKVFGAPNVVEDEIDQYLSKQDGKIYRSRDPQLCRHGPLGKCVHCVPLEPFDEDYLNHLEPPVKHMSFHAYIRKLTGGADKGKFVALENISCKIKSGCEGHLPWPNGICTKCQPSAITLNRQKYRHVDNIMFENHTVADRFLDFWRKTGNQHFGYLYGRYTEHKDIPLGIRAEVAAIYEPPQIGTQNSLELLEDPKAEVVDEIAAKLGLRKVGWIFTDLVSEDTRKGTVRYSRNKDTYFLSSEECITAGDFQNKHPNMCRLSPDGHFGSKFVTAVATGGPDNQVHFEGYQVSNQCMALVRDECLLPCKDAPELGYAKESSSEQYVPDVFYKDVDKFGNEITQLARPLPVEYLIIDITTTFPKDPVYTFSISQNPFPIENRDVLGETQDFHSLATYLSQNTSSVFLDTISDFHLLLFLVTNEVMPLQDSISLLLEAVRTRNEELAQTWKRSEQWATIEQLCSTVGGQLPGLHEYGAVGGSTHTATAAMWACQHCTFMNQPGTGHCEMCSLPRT

## Polyubiquitin-C (Homo sapiens) (from UniProt P0CG48) I44A
  effect of a mutation on the interaction: decreasing interaction
